Entries after “also recorded” stand apart in the source; their conditions may differ.

Assay [1] has as its target T1, thrombin (Homo sapiens, UniProt P00734).
T1 construct: yields the active alpha thrombin molecule which is a 295 amino acid polypeptide (human) composed of a heavy and light chain
The assay is described as follows: Thrombin inhibition testing: clotting activity of 10 IU/ml thrombin towards fibrinogen in the presence of the additive. It is filed as biochemical. On the procedure:
(§1) Thrombin activity was assessed by clotting time measurements using STart4 Coagulation Instrument (DIAGNOSTICA STAGO™, Asnieres sur Seine, France). The assay is a modification of the European Pharmacopoeia Assay procedure, 1997, 0903, p. 858. Briefly, a calibration curve was prepared by mixing thrombin standard with a fibrinogen solution of 0.1% fibrinogen content (Enzyme Research Laboratories, Ind., USA). Thrombin concentration in the different tested samples was then calculated from the calibration curve by their clotting time (the concentration was extrapolated from the calibration curve).
For inhibition testing, the clotting activity of 10 IU/ml thrombin was measured in the presence or absence of peptides.
The assay was carried out as described in Example 1.

The target of assay [2] is T1, thrombin. The assay is described as follows: Thrombin stability testing: remaining clotting activity of 1000 IU/ml liquid thrombin after storage at 37° C. In kind it is biochemical. As to conditions: 1000 IU/ml thrombin.
The target in assay [3] is T1, thrombin. Described as above. As to conditions: 0.5 mM peptide, 1000 IU/ml thrombin; for stabilization of thrombin activity (in words): 37° C., 0, 3 and 7 days. In kind it is biochemical. On the procedure:
Aqueous liquid thrombin, in its purified and concentrated form 1000 international units IU/ml may undergo autolysis at room temperature causing a significant loss of activity e.g. towards a heterologous substrate. E.g. thrombin activity towards a heterologous substrate is reduced when a liquid thrombin formulation is incubated at room temperature for prolonged periods of time (e.g. 72 to 144 hours), inter alia, due to autolytic degradation. The decrease of thrombin activity towards a heterologous substrate in aqueous liquid solution can be assessed by measuring thrombin activity after prolonged periods of time and under permissive temperature (e.g. 37° C.). In the following experiments, the effect of a peptide on the stability of thrombin was studied under different conditions.
Aqueous liquid purified and concentrated thrombin (1000 IU/ml; equivalent to about 10 μM) was aliquoted and placed in a 37° C. incubator for 3 days (72 hours), 7 days (168 hours) and 14 days (336 hours). Prior to incubation, thrombin samples were spiked with indicated amounts of different tested peptides or with a control thrombin inhibitor: benzamidine or arginine *HCl (“arginine”). Specific peptides, their concentrations, and thrombin inhibitors used are indicated in each Example. Following the incubation period, the samples were frozen at −80° C. until testing the thrombin activity. Just before thrombin activity assay testing, all the samples were thawed and 100-fold diluted into a dilution buffer (0.4% tri-sodium citrate di-hydrate, 0.9% sodium chloride and 1% BSA, pH=7.5) to bring the thrombin concentration in the sample to that within the specifications of the assay (4-10 IU/ml) and to dilute the tested peptides in the sample to a negligible concentration.
as §1
For stability testing of 1000IU/ml thrombin following storage with or without peptides, testing was carried out as described above. Dilutions (1:100) were carried out before measuring the activity.
All of these peptides (“mutant gamma loop peptides” identified in Example 3, random peptides, thrombin derived peptides, and “gamma loop binding peptides” mentioned above) were tested for their ability to stabilize thrombin activity at a concentration of 0.5 mM as described in Example 2.

Another assay deals with T2, gamma loop of thrombin (Homo sapiens, UniProt P00734).
T2 construct: Fluorescein-labeled cyclic gamma-loop derived peptide; made in house; host or cells: chemical synthesis
The assay is described as follows: Peptide microarray binding screen with fluorescent gamma loop peptide. As to conditions: scale 0-65535. The method, then: Based on the results disclosed in Example 2, the gamma loop peptide was used as a bait to find additional peptides which may positively affect the stability of thrombin. For this purpose, a binding screen was carried out using a fluorescent gamma loop peptide incubated with several peptide arrays.
(§2) A library of 1,676 15-meric peptides spanning the sequences of proteins interacting with the gamma loop of thrombin such as thrombin itself, anti-thrombin III (ATIII), thrombomodulin, heparin cofactor II, bovine pancreatic trypsin inhibitor (BPTI), and hirudin, and modifications of the thrombin gamma loop sequence were generated. Peptides were synthesized using SPOT synthesis (Wenschuh H, et al. (2000). Coherent membrane supports for parallel microsynthesis and screening of bioactive peptides. Biopolymers 55:188-206) and were chemoselectively immobilized onto functionalized glass slides as described (Panse S, et al. (2004) Profiling of generic anti-phosphopeptide antibodies and kinases with peptide microarrays using radioactive and fluorescence-based assays. Mol Divers 8:291-299.2.). Each peptide was printed in triplicates onto the microarray. For binding studies, 100 μg of purified thrombin (Omrix biopharmaceuticals) were directly labeled with DYLIGHT® 650 Microscale Antibody Labeling Kits, THERMO SCIENTIFIC™ (#84536) and diluted in blocking buffer SUPERBLOKTM T20 (TBS) Blocking Buffer, THERMO SCIENTIFICTM (#37536). The microarrays were incubated with 10 μg/ml DYLIGHT® 650-Thrombin or a Fluorescein-labeled cyclic gamma-loop derived peptide for one hour at 30° C. in a HS4800™ microarray processing station (Tecan) (Masch A, et al., (2010) Antibody signatures defined by high-content peptide microarray analysis. Methods Mol Biol 669:161-172).
(§3) Microarrays were washed with 0.1% TWEEN®20 in 1× TBS followed by 0.05% TWEEN®20 in 0.1× SSC and dried in a stream of nitrogen. Each microarray was scanned using GENEPIX® Autoloader 4200AL (Molecular Devices, Pixel size: 10 μm). Signal intensities were evaluated using spot recognition software GENEPIX® Pro 7.0 analysis software (Molecular Devices). For each peptide, the mean signal intensity of the three triplicates was extracted. Further evaluation and representation of results was performed using the statistical computing and graphics software R (Version 2.11.1, www.r-project.org).
(§4) One array included peptides based on the thrombin sequence. Any peptide isolated from this library may reflect possible regions in the thrombin protein that may interact with the gamma loop. […] The fluorescence for the strongest binding candidates (hits) was quantified on an arbitrary scale of 0-65535 (2^16). Thrombin activity was assesed as described in Example 1.

Assay [4] addresses T1, thrombin. The assay is described as follows: Peptide microarray binding with fluorescently labelled thrombin. To be noted: DYLIGHT 650-Thrombin. The method, then: A screen was carried out to identify gamma loop mutants that may show improved binding to thrombin. This was carried out with fluorescent thrombin on an array of gamma loop peptide mutants. Three such cyclized peptides with the highest binding efficiency were tested for their capacity to stabilize thrombin without compromising thrombin activity towards fibrinogen (see Example 4 below).
as §2, with “The microarrays were incubated with 10 μg/ml DYLIGHT® 650-Thrombin or a Fluorescein-labeled” left out
as §3, §4

In the case of “GNLKETWTANVGKGQPS [SEQ ID NO:2, gamma loop peptide with flanking amino acids on N- and C-termini]”, the “effect on thrombin activity (in words)” value with thrombin [1] (0.2 mM peptide, 10 IU/ml thrombin) was “not significantly affected”. In addition, in the assay with thrombin [1] (0.5 mM peptide, 10 IU/ml thrombin, FIG. 2D), the “remaining thrombin activity in presence of peptide” value is given as “about 80%”. The “stabilization of thrombin activity (in words)” value in the assay with thrombin [2] (0.1 mM peptide, 144 hours at 37° C.) is “stabilization detected”; with thrombin [2] (0.2 mM peptide, 72 hours at 37° C.), “already evident”; with thrombin [3], “capable of stabilizing liquid aqueous thrombin”; in the assay with thrombin [3] (listed as SEQ ID NO: 2) it was “efficient stabilization of thrombin activity”. Moreover, in the assay with thrombin [3] (72 and 144 hours at 37° C., FIG. 2C), the “thrombin stability (in words)” value is on record as “an increase in thrombin stability was observed”.

Consider LGNKKFVSGSRFVST [Rnd_inter_316], for which the “inhibition of thrombin activity (in words)” value with thrombin [1] (any concentration tested) is reported as “absolutely no inhibition”. The “Binding intensity of gamma loop” value with gamma loop of thrombin is 26628 arbitrary units. Besides, in the assay with thrombin [4], the “Binding intensity of thrombin (100 μg/ml)” value came out at 12353. Also, the “stabilization of thrombin activity (in words)” value with thrombin [3] (listed as SEQ ID NO:12) was “some stabilization effect; also recorded: capable of stabilizing liquid aqueous thrombin”.

For the origin of these results see patent US10435681B2, “Compounds and methods for stabilizing thrombin activity” (Omrix Biopharmaceuticals Ltd., priority 2013, dated 2019).
